Experimental data from patent US10829756B2, “Discovery of enzymes from the alpha-keto acid decarboxylase family” (priority 2015, dated 2020).

Legend:
[1] = substrate: CCCCCCC(=O)C(=O)O; experiment: Steady-state kinetics of 2-ketoacid decarboxylase (ADH/NADH coupled); format: biochemical, Lactococcus lactis; settings: other: pH 7.5, 21° C.
Experimental: (§1) Since KIVD can already efficiently utilize C8 as a substrate, enzyme specificity is of primary importance. Therefore each mutant was screened against a panel of 2-ketoacid substrates in order to assess the specificity and activity of each mutant. (FIG. 11) This assay was performed using a high-throughput pH-dependent colorimetric assay of enzyme activity in crude cell extracts. Mutations that increased specificity for C8 were then combined to produce combinatorial mutants and screened for specificity with the colorimetric assays. […] The engineered enzyme KIVD_VLV has a 600-fold improvement in specificity between C8 and C5, in terms of catalytic efficiency, relative to the native KIVD.
(§2) For the native KIVD and KIVD_VLV mutant, 2 ml overnight cultures of XL1B cells were transformed with pQE9 containing N-terminal his-tagged KIVD enzymes and grown in Terrific Broth (BP biomedical, Cat#3046-042) with 50 μg/mL of carbenicillin. (Fisher scientific, Cat# BP2648-5) For the GEOs, 2 ml overnight cultures of BLR cells were transformed with pet29b+ plasmid containing N-terminal his-tagged GEOs, and grown in Terrific Broth with 50 μg/mL of kanamycin. (Fisher scientific, Cat# BP906-5) These cultures were diluted 1:1000 in 500 mL of Terrific Broth with 1 mM MgSO4, 1% glucose, and 50ug/mL of corresponding antibiotics, then grown at 37° C. for 24 hours. Cultures were pelleted down at 4700 rpm for 10 mins and resuspended in auto-induction media (LB broth, 1 mM MgSO4, 0.1 mM TPP, 1×NPS, and 1×5052) for induction at 18° C. for 34 hours. At the end of induction, cells were centrifuged (4700 rpm, 4° C., 20 minutes), supernatant was removed, and cells were resuspended in 40 mL lysis buffer (100 mM Hepes pH 7.5, 100 mM NaCl, 10% glycerol, 0.1 mM TPP, 1 mM MgSO4, 10 mM Imidazole, 1 mM TCEP) and 1 mM PMSF) and sonicated for 2 minutes. Lysed cells were centrifuged at 4700 rpm at 4° C. for 60 mins to remove cell debris. […] Protein concentrations were determined using a Synergy H1 spectrophotometer (Biotek) by measuring absorbance at 280 nm using their calculated extinction coefficients with ExPASy ProtParam Tool.^33 All other buffers and salts were purchased from Fisher Scientific unless otherwise specified.
(§3) The kcat and KM values of selective KIVD mutants were measured for the substrates: C3, C5, isoC5, and C8. […] Activity was measured at 0.005 mM to 10 mM substrates. […] Absorbance readings were taken every 1-minute at OD340 at 21° C. for 60 minutes using the Synergy H1. Kinetic parameters (kcat and KM) were determined by fitting initial velocity versus substrate concentration data to the Michaelis-Menten equation.

[2] = substrate: CCCC(=O)C(=O)O; experiment: as above; format: biochemical, Lactococcus lactis; settings: other: pH 7.5, 21° C.
Experimental: as §1, §2, §3

B1: KIVD variant G402V/M538L/F542V (KIVD_VLV), SEQ ID NO:3 (Lactococcus lactis subsp. lactis; F542V/G402V/M538L) (protein)
chain: MYTVGDYLLDRLHELGIEEIFGVPGDYNLQFLDQIISRKDMKWVGNANELNASYMADGYARTKKAAAFLTTFGVGELSAVNGLAGSYAENLPVVEIVGSPTSKVQNEGKFVHHTLADGDFKHFMKMHEPVTAARTLLTAENATVEIDRVLSALLKERKPVYINLPVDVAAAKAEKPSLPLKKENSTSNTSDQEILNKIQESLKNAKKPIVITGHEIISFGLEKTVSQFISKTKLPITTLNFGKSSVDEALPSFLGIYNGKLSEPNLKEFVESADFILMLGVKLTDSSTGAFTHHLNENKMISLNIDEGKIFNESIQNFDFESLISSLLDLSEIEYKGKYIDKKQEDFVPSNALLSQDRLWQAVENLTQSNETIVAEQGTSFFGASSIFLKPKSHFIGQPLWVSIGYTFPAALGSQIADKESRHLLFIGDGSLQLTVQELGLAIREKINPICFIINNDGYTVEREIHGPNQSYNDIPMWNYSKLPESFGATEERVVSKIVRTENEFVSVMKEAQADPNRMYWIELILAKEDAPKVLKKLGKLVAEQNKS
- Km [1]: 0.18 ± 0.05 mM
- kcat [1]: 0.5 ± 0.03 s⁻¹
- Km [2]: 10.0 ± 1.0 mM
- kcat [2]: 0.013 ± 0.001 s⁻¹
